# Test results from the supplement of paper PMC7125110.
# ± gives the standard error. This sample holds only a part of the variants without activity.
# B1: glmS ribozyme (parent)
# chain: AUAAAAGCGCCAGAACUACAGAAAUGUAGUUGACGAGGAGGAGGUUUAUCGAAUUUUCGGCGGAUGCCUCCAAA
# Assays:
# Details in all cases: with glucosamine-6-phosphate
# glucosamine-6-phosphate [1] = variants of: B1; experiment: self-cleavage kobs at 160 uM GlcN6P; higher = faster cleavage; RNA array
# How it was run: (§1)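 In situ transcription by E. coli RNA polymerase produced barcoded ribozyme variants on sequenced MiSeq chips, and a hybridised Cy3 probe tracked them at 37 °C. Glucosamine-6-phosphate was flowed in at 40 μM to 10 mM in HEPES/KCl/Mg(OAc)2 buffer. kcat and KM were taken from weighted Michaelis–Menten fits of kobs values from exponential decay fits.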
# glucosamine-6-phosphate [2] = variants of: B1; experiment: self-cleavage kobs at 640 uM GlcN6P; higher = faster cleavage; RNA array
# How it was run: as §1
# glucosamine-6-phosphate [3] = variants of: B1; experiment: self-cleavage kobs at 2500 uM GlcN6P; higher = faster cleavage; RNA array
# How it was run: as §1
# glucosamine-6-phosphate [4] = variants of: B1; experiment: self-cleavage kobs at 10000 uM GlcN6P; higher = faster cleavage; RNA array
# How it was run: as §1
Variant,self-cleavage kobs at 160 uM GlcN6P (glucosamine-6-phosphate [1]),self-cleavage kobs at 640 uM GlcN6P (glucosamine-6-phosphate [2]),self-cleavage kobs at 2500 uM GlcN6P (glucosamine-6-phosphate [3]),self-cleavage kobs at 10000 uM GlcN6P (glucosamine-6-phosphate [4])
C11A A48C,< 1e-05 s⁻¹,< 1e-05 s⁻¹,< 1e-05 s⁻¹,–
C11G A12U G13U C58U C68G,7.71e-05 ± 2.9e-05 s⁻¹,0.000363 ± 0.00016 s⁻¹,–,–
C8G A12C A36C G59A,< 1e-05 s⁻¹,–,< 1e-05 s⁻¹,–
C8U U55A,< 1e-05 s⁻¹,< 1e-05 s⁻¹,< 1e-05 s⁻¹,–
G7U G38A G40A G62A,< 1e-05 s⁻¹,< 1e-05 s⁻¹,< 1e-05 s⁻¹,–
G7U A36C A48C A53U,< 1e-05 s⁻¹,–,< 1e-05 s⁻¹,–
C10G U57C,< 1e-05 s⁻¹,< 1e-05 s⁻¹,< 1e-05 s⁻¹,< 1e-05 s⁻¹
C10A C16A U47C U65C,< 1e-05 s⁻¹,< 1e-05 s⁻¹,–,–
G9U C11U G38C,< 1e-05 s⁻¹,< 1e-05 s⁻¹,< 1e-05 s⁻¹,–
G7A G59U C70A,< 1e-05 s⁻¹,–,< 1e-05 s⁻¹,–
G7U G37C G40A,< 1e-05 s⁻¹,< 1e-05 s⁻¹,–,–
C8A A42U U45G,< 1e-05 s⁻¹,< 1e-05 s⁻¹,< 1e-05 s⁻¹,–
C8U G35A U49C A64C C71A,< 1e-05 s⁻¹,–,–,–
C11G A39C A64U,< 1e-05 s⁻¹,< 1e-05 s⁻¹,–,–
G9U A33C,< 1e-05 s⁻¹,< 1e-05 s⁻¹,< 1e-05 s⁻¹,< 1e-05 s⁻¹
G9U A15U A39U U69C,< 1e-05 s⁻¹,< 1e-05 s⁻¹,–,–
C8A A15U A36C A52G,< 1e-05 s⁻¹,–,–,–
G7C A36G A39C,< 1e-05 s⁻¹,< 1e-05 s⁻¹,–,–
G9U U31A C71U,< 1e-05 s⁻¹,< 1e-05 s⁻¹,< 1e-05 s⁻¹,–
G9U C34G G40C A48U C61U,< 1e-05 s⁻¹,–,–,–
C8G G13U G43A U46G C50U,< 1e-05 s⁻¹,< 1e-05 s⁻¹,–,–
G7A G37A A39G G40U U49A G59A,< 1e-05 s⁻¹,–,< 1e-05 s⁻¹,–
G7C A48C C50U,< 1e-05 s⁻¹,–,–,< 1e-05 s⁻¹
C11U A14C A39G U69A,< 1e-05 s⁻¹,–,–,–
C10G G13U A15C,< 1e-05 s⁻¹,< 1e-05 s⁻¹,–,–
C11A A42G G63A,< 1e-05 s⁻¹,< 1e-05 s⁻¹,–,–
G7U G13U A15C,< 1e-05 s⁻¹,< 1e-05 s⁻¹,< 1e-05 s⁻¹,–

Variant,self-cleavage kobs at 160 uM GlcN6P (glucosamine-6-phosphate [1]),self-cleavage kobs at 640 uM GlcN6P (glucosamine-6-phosphate [2]),self-cleavage kobs at 2500 uM GlcN6P (glucosamine-6-phosphate [3]),self-cleavage kobs at 10000 uM GlcN6P (glucosamine-6-phosphate [4])
C10U A12G G63U,< 1e-05 s⁻¹,–,< 1e-05 s⁻¹,–
C10A A14C G37C G44U C61U,< 1e-05 s⁻¹,–,–,–
C11G C67U,< 1e-05 s⁻¹,< 1e-05 s⁻¹,< 1e-05 s⁻¹,–
C8U A39C G44A U56G U65A,< 1e-05 s⁻¹,–,–,–
C11G G29A G37U,< 1e-05 s⁻¹,< 1e-05 s⁻¹,–,–
G9U G13U G32A U47A G62A,< 1e-05 s⁻¹,–,–,–
C10A C34U U55G,< 1e-05 s⁻¹,–,< 1e-05 s⁻¹,–
C8G G51C C68G,< 1e-05 s⁻¹,< 1e-05 s⁻¹,–,–
C10G G35C,< 1e-05 s⁻¹,< 1e-05 s⁻¹,–,< 1e-05 s⁻¹
C10G G35U,< 1e-05 s⁻¹,< 1e-05 s⁻¹,< 1e-05 s⁻¹,–
G9U A12G G29A U56A,< 1e-05 s⁻¹,< 1e-05 s⁻¹,< 1e-05 s⁻¹,–
G7C C61A,< 1e-05 s⁻¹,< 1e-05 s⁻¹,–,–
G7C C61U,< 1e-05 s⁻¹,< 1e-05 s⁻¹,< 1e-05 s⁻¹,–
C10U A12U G40U A48G G60A,7.46e-05 ± 2.7e-05 s⁻¹,–,–,–
C10A G35C G51U,< 1e-05 s⁻¹,< 1e-05 s⁻¹,< 1e-05 s⁻¹,–
C10A U30A G35U G43U,< 1e-05 s⁻¹,–,–,–
G9U A14U U47A,< 1e-05 s⁻¹,< 1e-05 s⁻¹,< 1e-05 s⁻¹,–
C11A G41U C58U,< 1e-05 s⁻¹,< 1e-05 s⁻¹,–,–
G9C C11A C16U G35C U54C G62A,< 1e-05 s⁻¹,< 1e-05 s⁻¹,–,–
C11G A12G G13C A14G,< 1e-05 s⁻¹,< 1e-05 s⁻¹,< 1e-05 s⁻¹,< 1e-05 s⁻¹
C10U G60U C70G,< 1e-05 s⁻¹,< 1e-05 s⁻¹,–,–
G9U A12C G40A G41U G43U G63U,< 1e-05 s⁻¹,–,–,–
G9C G44U,< 1e-05 s⁻¹,< 1e-05 s⁻¹,< 1e-05 s⁻¹,< 1e-05 s⁻¹
C11A G38C A42C,< 1e-05 s⁻¹,–,< 1e-05 s⁻¹,–
G7U A15G G32A,< 1e-05 s⁻¹,< 1e-05 s⁻¹,–,–
G7U G13U A14U A48G U54A,< 1e-05 s⁻¹,< 1e-05 s⁻¹,< 1e-05 s⁻¹,–
C10U U30C G43U G51U U55C U69C,< 1e-05 s⁻¹,< 1e-05 s⁻¹,< 1e-05 s⁻¹,< 1e-05 s⁻¹
